Test results published in the supplement of paper PMC9170038.

Tested on: MS2 coat protein
Experiment: apparent KD of MS2 coat protein; higher = weaker reporter binding
Conditions: Eterna round: R107
Description: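 RNA-MaP round R107: designed RNA switches with theophylline, tryptophan, arginine or FMN aptamers are transcribed on-chip within common flanks. They are titrated with SNAP-549-labelled MS2 coat protein in RNA-MaP buffer (100 mM Tris pH 7.5, 80 mM KCl, 4 mM MgCl2), without ligand or with the indicated ligand. Median apparent KD per design.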

[1] = input ligand: theophylline 20 uM
[2] = input ligand: theophylline 2 mM
[3] = input ligand: tryptophan 2.4 mM

Sequence | apparent KD of MS2 coat protein (input ligand: arginine 13.2 mM) [nM] | apparent KD of MS2 coat protein (input ligand: none) [nM] | apparent KD of MS2 coat protein [1] [nM] | apparent KD of MS2 coat protein [2] [nM] | apparent KD of MS2 coat protein [3] [nM]
ACAUUUAACUGAAGGAGCGUGAUAAACAUGAGGAUCACCCAUGUACCACAGAUUUUCAGAUCACAGGUAGGUCGCAGACUAAUGA [JR_ExcArginiB_Sub014] | 9.29 | 11.1 | 14.1 | 11.3 | 11.5
ACAUUUAACUGAAGGAGCGUGAUAUGUACAUGAGGAUCACCCAUGUCUUUCAUGUGAUUUUCACAGGUAGGUCGCAGACUAAUGA [JR_ExcArginiB_Sub003] | 11.8 | 11.5 | 14.2 | 13 | 11.6
ACCGCAUCCGUAUAGGAUGCGGCCCAUGAAGGAGCGUGGGAAACCACAGGUAGGUCGCAUGGAAAACAUGAGGAUCACCCAUGUG [Alien] | 114 | 524 | 442 | 920 | 489
ACCUACACGGAAACGUGUAGAAGUAAUGAUACCAGCAUGGAAACAUGCCCUUGGCAGCGUUACAUGAGGAUCACCCAUGUAUGUU [#01 Exclusion-TheophyllineA] | 16.4 |  | 19.9 |  | 15.4
ACCUGUACGAAAAGUGCAGGACACGGAAUACGAGGACCGGUACGGCCGCCACUCGGAAUAACCUGAGGAUCACCCUGGUACCGUG [TrypAS 10 #AlternativeMS2 #Zipper #StaticStem] | 25.8 | 18.8 | 27.5 | 26.7 | 19.2
ACCUGUACGAAAAGUGCAGGACACGGAUAACGAGGACCGGUACGGCCGCCACUCGGAAUAACCUGAGGAUCACCCUGGUACCGUG [TrypAS 8 #AlternativeMS2 #Zipper #StaticStem] | 25.8 | 18.7 | 24 | 23.2 | 19
ACCUUACAUGAGGAUCACCCAUGUCGUGAUACCAGAAACCACGUAUUCCCUUGGCAGCACACCCGUGAUGAGAUUGUCGGUUUUG [theeternabot_sameState_MS2_Theo_A_43] | 42.2 |  | 86.3 |  | 49.2
ACGAACGAUAGUGAUACCAGACGAACAUGAGGAUCACCCAUGUUAUACACAUGGUUUAUUGUCCCUUGGCAGCACUUUAAGUUCG [JR_ExcTheophyB_Sub006] | 80.1 |  | 139 |  | 146
ACGAACGAUAGUGAUACCAGACGUACAUGAGGAUCACCCAUGUUAUACACAUGGUUUAUUGUCCCUUGGCAGCACGAUAAGUUCG [JR_ExcTheophyB_Sub004] | 109 |  | 263 |  | 282
ACGACGCAUAGUGAUACCAGUACAACAUGAGGAUCACCCAUGUCACAUAUGUUGUAAUAGUGCCCUUGGCAGCACUAUGCGUCAG [SSTheo B #3] | 94.4 |  | 106 |  | 125
ACGACGCAUAGUGAUACCAGUAGAACAUGAGGAUCACCCAUGUCUGUGGCGCUCCGCCUCUGCCCUUGGCAGCACUAUGCGUCAG [SSTheo B #10] | 11.9 |  | 17 |  | 11.4
ACGAUAGGACACGAGGAUCACCCGUGUGAUACCAGCCUGGAAACAGGCCCUUGGCAGCACAAAUACUCCAAUAACCUAUCGAAUA [TheoAX 10 #MicroSwitchBubble #AlternativeMS2] | 56.5 | 96.3 | 183 | 569 | 106
ACGAUAGGGCAUGAGGAUCACCCAUGUGAUACCAGCCUGGAAACAGGCCCUUGGCAGCAUUAAUACUCCAAUAACCUAUCGAAUA [TheoAX 17 #MicroSwitchBubble #AlternativeMS2] | 91.5 | 129 | 184 | 864 | 111
ACGAUGCGACAUGAGGAUCACCCAUGUGAUACCAGCCUGGAAACAGGCCCUUGGCAGCACAAAUACUCCAGAAACGCAUCGAAUA [MAT - Exclusion Theophlline A - Mod of Eli - D3] | 96.3 |  | 356 |  | 348
ACGCGCAGCAGAAGGAGCGUCUUAAUUCUACAUGAGGAUCACCCAUGUUUACAUUGGAUAUGACAGGUAGGUCGCUGGUGUGCGA [#06 Same State - Arginine B] | 15.9 | 18 | 18.1 | 19.6 | 15.6
ACGCUGAUUGAUUACAAUCAGCGAAAAGAUACCAGUGGGUAAUCCCACCCUUGGCAGCUUAAACAUGAGGAUCACCCAUGUGGUA [TheoAS 14 #MS2Right #BothOrNeither #AlternativeMS2] | 79.9 |  | 146 |  | 126
ACGUAAUGCAGAAGGAGCGUCUUAUGUAUACAUGAGGAUCACCCAUGUAAUAUGUGGUUGAGACAGGUAGGUCGCUGAAGUACGA [JR_SSArginiB_Sub009] | 46.9 | 86 | 94.1 | 78.4 | 58.7

Sequence | apparent KD of MS2 coat protein (input ligand: arginine 13.2 mM) [nM] | apparent KD of MS2 coat protein (input ligand: none) [nM] | apparent KD of MS2 coat protein [1] [nM] | apparent KD of MS2 coat protein [2] [nM] | apparent KD of MS2 coat protein [3] [nM]
ACUAGUUGUGCAGAUACCAGACAUGAGGAUCACCCAUGUUUGGGUUGUUCGCAACUUCCUGUCCCUUGGCAGCUGUACAUCUAGA [Omei Theo B Exc v5] | 18.9 |  | 46.9 |  | 24.3
AGAAUAUAGUCGGCCGCCACUCUUCAUACAUGAGGAUCACCCAUGUUUAAUUCUUGGAUAUUCUUGAGGACCGGGACAUAGGCAU [JR_SSTryptoB_Sub019] | 18 |  | 23.1 | 21.6 | 
AGACAUGAGGAUCACCCAUGUAGCAUGGAUACCAGAUGUAGAUUAGUCCCUUGGCAGCUGUGGUAAAGUGAUGCAUUGCUCCUAG [Exclusion - Theophylline A (Freestyle 3)] | 35.2 |  | 55.3 |  | 38.8
AGACAUGUAAGAUAAAUGACUUAUACAGAUACCAGACUGUCUAAUGUCCCUUGGCAGCUGCAUAACAUGAGGAUCACCCAUGUAA [JR_ExcTheophyA_Sub010] | 22.3 |  | 24.2 |  | 26.9
AGACCCUUCACGGCCGCCACUCAUUUUAAGUAGAGAGAGUACAUGAGGAUCACCCAUGUGAGAGAGAGGACCGGGUGAGAUAUUA [ss-trypB-0] | 13.9 |  | 21.4 | 21.3 | 
AGACUGUCUUCGGACAGUCCGGACAGCCCGCGAGGACCGGUACGGCCGCCACUCGCACGAGGAUCACCCGUGUGAGGCUGUCCGA [Omei Tryp A Exc A v2] | 9.87 | 13.4 | 17.2 | 16.4 | 14.5
AGCAACAAGUCGGCCGCCACUCAUUUAACAUGAGGAUCACCCAUGUGAAUAACAUGGUUGUAAUAGAGGACCGGGACAGUUGCAU [JR_SSTryptoB_Sub016] | 205 |  | 283 | 401 | 
AGCACUGUGACGGCCGCCACUAUAUAUAGGGUGGUCAGGUUCAUAAUACAUGAGGAUCACCCAUGUAGGACCGGGUCUCAGUGCA [Omei Trp Exc B A v4] | 14.5 | 12 | 14.9 | 10.9 | 14
AGCACUGUGGCGGCCGCCACUACAUAUAGGGUGGUCAGGCCCAUAAUACAUGAGGAUCACCCAUGUAGGACCGGGCCUCAGUGCA [Omei Trp Exc B A v13] | 12.7 |  | 20 | 16.5 | 
AGCCACUCGAACAUGGGUGACGAGUGGCAACGAGGACCGGUACGGCCGCCACUCGAAUAAACAUGAGGAUCACCCAUGUACAAAU [T''-M'-T'-T-MS2 - Design 9] | 33.1 |  | 146 | 355 | 
AGCGACAUGCAUGAUACCAGCUACAUGAGGAUCACCCAUGUACGUCAGUAAUGACUGUGUAGCCCUUGGCAGCAUAGAGCAUGUU [Exclusion - Theophylline B (Freestyle 15)] | 15.7 |  | 29.3 |  | 16.5
AGCGACAUGCGUGAUACCAGCUACAUGAGGAUCACCCAUGUACGUCAGAAAUGACUGUGUAGCCCUUGGCAGCAUAGUGCAUGUC [Exclusion - Theophylline B (Freestyle 20)] | 34.6 |  | 54.2 |  | 34.8
AGCUCGCAUCCUCUAGCGUCAAAGACGCGUCGAGGACCGGUACGGCCGCCACUCGACUUGAGGAACACCCAAGUCCUAGCGAGCA [TrypAX 12 #SwitchBubble #AlternativeMS2 #MS2Late #CuTurnoff] | 62.2 | 188 | 217 | 306 | 290
AGCUCGCGUCCUCAAGCGUCAAAGACGCGUCGAGGACCGGUACGGCCGCCACUCGACCUGAGGAUCACCCAGGUUUAAGCGAGCA [TrypAX 6 #SwitchBubble #AlternativeMS2 #MS2Late #CuTurnoff] | 12.7 | 17.8 | 20 | 18.1 | 115
AGGAAACAACAUGAGGAUCACCCAUGUGAUACCAGUAUCAAAAGAUACCCUUGGCAGCACACAUGACAUGAGGAUCACCCAUGUA [AstrosSSTheA#2] | 33.2 |  | 52.4 |  | 74.4
AGGACAUCGAGAAGGAGCGCAUCCAAACCACACAUGAGGAUCACCCAUGUAUAAAUAUGCAUGCAGGUAGGUCGCUCGGCGUCUU [Leanerin] | 57.5 | 99 | 121 | 85.7 | 87.4
